Experimental data from patent US20190300625A1 (Regeneron, published 2019).

How the values were obtained:
[1] = molecular target: human TMPRSS2 (NP_005647.3 with a V160M) expressed on MDCK/Tet-on/hTMPRSS2 cells (human, UniProt O15393 1-492); assay: flow cytometry on MDCK/Tet-on/hTMPRSS2 cells, doxycycline-induced
[2] = molecular target: cynomolgous monkey TMPRSS2 (XP_015302311.1 with S129L, N251S, I415V, R431Q, D492G) expressed on … (cynomolgous monkey; SEQ ID NO …); assay: flow cytometry on MDCK/Tet-on/mfTMPRSS2 cells, doxycycline-induced
cynomolgous monkey TMPRSS2 (XP_015302311.1 with S129L, N251S, I415V, R431Q, D492G) expressed on … (cynomolgous monkey; SEQ ID NO …), sequence (chain, as listed by the source S129L N251S I415V R431Q D492G S129L N251S I415V R431Q D492G limits assumed): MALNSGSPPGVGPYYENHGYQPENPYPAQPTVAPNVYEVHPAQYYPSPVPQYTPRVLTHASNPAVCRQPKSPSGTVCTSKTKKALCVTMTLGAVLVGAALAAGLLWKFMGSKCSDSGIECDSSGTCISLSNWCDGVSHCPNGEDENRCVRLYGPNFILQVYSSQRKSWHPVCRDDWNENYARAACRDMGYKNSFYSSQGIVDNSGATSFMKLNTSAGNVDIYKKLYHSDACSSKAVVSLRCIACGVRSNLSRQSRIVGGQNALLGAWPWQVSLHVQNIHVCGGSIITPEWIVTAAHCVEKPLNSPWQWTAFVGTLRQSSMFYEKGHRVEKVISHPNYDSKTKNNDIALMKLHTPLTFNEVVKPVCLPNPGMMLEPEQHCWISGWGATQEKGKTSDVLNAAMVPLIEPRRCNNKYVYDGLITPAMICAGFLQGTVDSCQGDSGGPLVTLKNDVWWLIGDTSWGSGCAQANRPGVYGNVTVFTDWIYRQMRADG

human TMPRSS2 (NP_005647.3 with a V160M) expressed on MDCK/Tet-on/hTMPRSS2 cells, sequence (O15393 whole entry V160M): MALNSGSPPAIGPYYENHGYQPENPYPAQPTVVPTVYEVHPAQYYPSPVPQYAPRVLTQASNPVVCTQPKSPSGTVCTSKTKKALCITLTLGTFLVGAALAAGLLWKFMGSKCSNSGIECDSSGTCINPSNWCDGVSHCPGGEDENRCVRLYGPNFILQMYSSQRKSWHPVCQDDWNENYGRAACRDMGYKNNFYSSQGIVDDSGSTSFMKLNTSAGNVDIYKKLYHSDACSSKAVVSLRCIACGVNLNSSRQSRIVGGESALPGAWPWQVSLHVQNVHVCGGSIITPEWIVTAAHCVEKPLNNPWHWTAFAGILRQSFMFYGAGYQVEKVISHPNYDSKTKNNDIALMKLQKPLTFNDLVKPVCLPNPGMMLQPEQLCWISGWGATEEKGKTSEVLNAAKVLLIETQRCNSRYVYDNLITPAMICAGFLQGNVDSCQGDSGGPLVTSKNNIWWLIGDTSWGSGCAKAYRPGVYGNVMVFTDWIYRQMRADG

B1: H1H7017N (antibody, human IgG1, kappa, V domains shown)
VH: QVQLVESGGGVVQPGRSLRLSCAASGFTFSSYGMHWVRQSPGKGLEWVAVIWNDGSYVYYADSVKGRFTISRDISKNTLFLQMNSLRAEDTAVYYCAREGEWVLYYFDYWGQGTLVTVSS
VL: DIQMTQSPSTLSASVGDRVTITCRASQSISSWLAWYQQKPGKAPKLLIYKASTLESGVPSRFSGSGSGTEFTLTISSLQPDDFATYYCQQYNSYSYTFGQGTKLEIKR
notes: also called anti-TMPRSS2 mAb; anti-hTMPRSS2 antibody
- EC50 [1]: 0.46 nM
- EC50 [2]: 1.06 nM
